Experimental data published in patent publication US20160340429A1 (KADMON, published 2016).

Tests used:
soluble mouse PDL1 = biological target: T1, soluble mouse PDL1 (mouse, UniProt Q9EP73 19-238, limits assumed); test: binding assay of FIG. 17
T1 construct: May be the same protein as the murine PDL1-Fc

human PDL2 = biological target: T2, human PDL2 (human, UniProt Q9BQ51 20-219, limits assumed); test: binding assay of FIG. 17
T2 sequence (looked up): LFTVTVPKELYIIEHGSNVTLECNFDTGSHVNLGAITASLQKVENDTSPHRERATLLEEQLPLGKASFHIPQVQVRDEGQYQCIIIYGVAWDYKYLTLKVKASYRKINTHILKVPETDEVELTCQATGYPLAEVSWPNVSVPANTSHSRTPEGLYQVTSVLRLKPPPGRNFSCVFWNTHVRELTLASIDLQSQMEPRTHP

soluble human PDL1 = biological target: T3, soluble human PDL1 (human, UniProt Q9NZQ7 19-239, limits assumed); test: binding assay of FIG. 17
T3 construct: May be the same protein as the human PDL1-Fc; also called soluble PDL1

[1] = biological target: T4, human PD-L1 on cells (PDLI-293 / HEK-293 cells expressing PD-L1, MDA-MB-231 cells, activated CD4 cells, … (human, UniProt Q9NZQ7 19-290)); test: binding to MDA-MB-231 cells, FIG. 19
T4 construct: whole, on cells
T4 sequence (Q9NZQ7 19-290): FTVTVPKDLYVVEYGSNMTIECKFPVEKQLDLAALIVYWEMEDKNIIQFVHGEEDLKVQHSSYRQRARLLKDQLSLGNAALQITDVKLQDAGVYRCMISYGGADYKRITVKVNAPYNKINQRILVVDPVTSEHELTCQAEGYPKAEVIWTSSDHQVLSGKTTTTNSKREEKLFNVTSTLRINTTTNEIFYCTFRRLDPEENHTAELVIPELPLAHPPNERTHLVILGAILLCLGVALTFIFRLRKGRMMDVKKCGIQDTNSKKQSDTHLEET

T3 sequence (Q9NZQ7 19-239 limits assumed): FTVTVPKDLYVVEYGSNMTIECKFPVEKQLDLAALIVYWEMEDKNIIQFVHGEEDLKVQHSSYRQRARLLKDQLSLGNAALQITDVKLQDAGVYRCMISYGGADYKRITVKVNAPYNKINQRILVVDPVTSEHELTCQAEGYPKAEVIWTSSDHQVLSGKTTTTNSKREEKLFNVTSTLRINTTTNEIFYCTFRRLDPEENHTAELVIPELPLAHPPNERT
T1 sequence (Q9EP73 19-238 limits assumed): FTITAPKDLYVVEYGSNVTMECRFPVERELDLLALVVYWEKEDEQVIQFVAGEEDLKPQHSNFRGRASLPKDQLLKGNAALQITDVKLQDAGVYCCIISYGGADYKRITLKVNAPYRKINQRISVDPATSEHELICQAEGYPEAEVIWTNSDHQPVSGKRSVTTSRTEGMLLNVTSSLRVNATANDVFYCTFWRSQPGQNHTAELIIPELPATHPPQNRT

Binder | binding result (soluble mouse PDL1) | binding result (human PDL2) | binding result (soluble human PDL1) | binding result [1]
tccD7_#114 (antibody, V domains shown, converted to IgG and to an IgG with two Leu-Ala substitutions) VH: EVQLLESGGGLVQPGGSLRLSCAASGFTFSSYLMVWVRQAPGKGLEWVSSIYPSGGITFYADSVKGRFTISRDNSKNTLYLQMNSLRAEDTAIYYCARIKLGTVTTVDYWGQGTLVTVSS VL: QSALTQPASVSGSPGQSITISCTGTSSDVGAYNYVSWYQQHPGKAPKLMIYDVSNRPSGVSNRFSGSKSGNTASLTISGLQAEDEADYYCSSYTSSSTRVFGTGTKVTVLG | binds | no binding | binds | binds
tccD7_#102 (antibody, V domains shown, converted to IgG and to an IgG with two Leu-Ala substitutions; also called tccD7_#2; cD7_#2) VH: EVQLLESGGGLVQPGGSLRLSCAASGFTFSAYRMFWVRQAPGKGLEWVSSIYPSGGITFYADSVKGRFTISRDNSKNTLYLQMNSLRAEDTAIYYCARIKLGTVTTVDYWGQGTLVTVSS VL: QSALTQPASVSGSPGQSITISCTGTSSDVGAYNYVSWYQQHPGKAPKLMIYDVSNRPSGVSNRFSGSKSGNTASLTISGLQAEDEADYYCSSYTSSSTRVFGTGTKVTVLG | binds | no binding | binds | binds
